Reference: the supplement of paper PMC11780869

Tested on: Bacillus subtilis
Assay: cleaved RNA product abundance (RNA/gDNA barcode ratio) relative to median wild-type variant (ratio to wild type); higher = more accumulation of the downstream cleavage product
Settings: experiment (reporter, strain, medium): exp 8a: truncated aprE reporter, strain BJT201 with 2% xylose (RNase J1 expressed); cleavage site: glnRA (positions -5 to +31 mutated)
How it was run: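 Reporter mRNAs based on truncated aprE or tetM carried barcoded, mutagenized RNase Y cleavage-site windows built from oligos with a 9% error rate and were integrated into the B. subtilis chromosome. Cultures grew in LB at 37°C from OD600 0.0003 to 0.3. Cleaved RNA was gel-selected, reverse transcribed and barcode-sequenced together with genomic DNA barcodes, and UMIs were collapsed. Cleaved product abundance is the per-construct ratio of RNA to gDNA barcodes, scaled to the median of constructs carrying the unmutated site.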

Sequence: CGACATGTCCCGCTTCTTTCATTAATCCGTTAGCCACTGTTTTGCTATATACATTTACTTTTTAAGAGGAGGAAT
- cleaved RNA product abundance: 0.98

Sequence: CGACATGTCCCGCTTCTTTCATTAATCCGTTAGCCACTGTTTTGTTATATACATTTACCTTTTAAGAGGAGGAAT
- cleaved RNA product abundance: 0.247

Sequence: CGACATGTCCCGCTTCTTTCATTAATCCGTTAGCCAGTGTTTTGCTATATACATTTACCTTTTAAGAGGAGGAAT
- cleaved RNA product abundance: 0.333

Sequence: CGACATGTCCCGCTTCTTTCATTAATCCGTTAGCGACAGTTTTGCTATATACATTTACCTTTTAAGAGGAGGAAT
- cleaved RNA product abundance: 0.233

Sequence: CGACATGTCCCGCTTCTTTCATTAATCCGTTAGCGACTGTTTAGCTATATACATTTACCTTTTAAGAGGAGGAAT
- cleaved RNA product abundance: 0.681

Sequence: CGACATGTCCCGCTTCTTTCATTAATCCGTTAGCGACTGTTTTGATATATACATTTACCTTTTAAGAGGAGGAAT
- cleaved RNA product abundance: 0.24

Sequence: CGACATGTCCCGCTTCTTTCATTAATCCGTTAGCGACTGTTTTGCTATATACATTGACCTTTTAAGAGGAGGAAT
- cleaved RNA product abundance: 0.274

Sequence: CGACATGTCCCGCTTCTTTCATTAATCCGTTAGCGACTGTTTTGCTATATACATTTAACTTTTAAGAGGAGGAAT
- cleaved RNA product abundance: 0.418

Sequence: CGACATGTCCCGCTTCTTTCATTAATCCGTTAGCGACTGTTTTGCTATATACATTTACCTTTTAAGAGGAGGAAT
- cleaved RNA product abundance: 0.385

Sequence: CGACATGTCCCGCTTCTTTCATTAATCCGTTAGCTACTGTTATGCTATATACATTTACCTTTTAAGAGGAGGAAT
- cleaved RNA product abundance: 0.786

Sequence: CGACATGTCCCGCTTCTTTCATTAATCCGTTAGCTACTGTTTTGCAATATACATTTACCTTTTAAGAGGAGGAAT
- cleaved RNA product abundance: 0.187

Sequence: CGACATGTCCCGCTTCTTTCATTAATCCGTTAGCTACTGTTTTGCTATATACATTTAACTTTTAAGAGGAGGAAT
- cleaved RNA product abundance: 0.621

Sequence: CGACATGTCCCGCTTCTTTCATTAATCCGTTAGCTACTGTTTTGCTATATACATTTACCTTTTAAGAGGAGGAAT
- cleaved RNA product abundance: 0.56

Sequence: CGACATGTCCCGCTTCTTTCATTAATCCGTTAGCTACTGTTTTGCTATATACATTTACGTTTTAAGAGGAGGAAT
- cleaved RNA product abundance: 0.818

Sequence: CGACATGTCCCGCTTCTTTCATTAATCCGTTAGCTACTGTTTTGCTATATACATTTATCTTTTAAGAGGAGGAAT
- cleaved RNA product abundance: 0.798

Sequence: CGACATGTCCCGCTTCTTTCATTAATCCGTTAGCTACTGTTTTGCTATATATATTTACCTTTTAAGAGGAGGAAT
- cleaved RNA product abundance: 0.617

Sequence: CGACATGTCCCGCTTCTTTCATTAATCCGTTAGCTACTGTTTTGCTATATGCATTTACCTTTTAAGAGGAGGAAT
- cleaved RNA product abundance: 0.368

Sequence: CGACATGTCCCGCTTCTTTCATTAATCCGTTAGCTACTGTTTTGCTATATTCATTTACATTTTAAGAGGAGGAAT
- cleaved RNA product abundance: 0.64

Sequence: CGACATGTCCCGCTTCTTTCATTAATCCGTTAGCTATTGTTTTGCTATATACATTTACCTTTTAAGAGGAGGAAT
- cleaved RNA product abundance: 0.432

Sequence: CGACATGTCCCGCTTCTTTCATTAATCCGTTAGCTGCTGTTTTGCTATATACATTTACCTTTTAAGAGGAGGAAT
- cleaved RNA product abundance: 0.658

Sequence: CGACATGTCCCGCTTCTTTCATTAATCCGTTAGGAAATGTTTTGCTATATACATTTACCTTTTAAGAGGAGGAAT
- cleaved RNA product abundance: 0.361

Sequence: CGACATGTCCCGCTTCTTTCATTAATCCGTTAGGAACAGTTTTGCTATATACATTTACCTTTTAAGAGGAGGAAT
- cleaved RNA product abundance: 0.434

Sequence: CGACATGTCCCGCTTCTTTCATTAATCCGTTAGGAACTATTTTGCTATATACATTTACCTTTTAAGAGGAGGAAT
- cleaved RNA product abundance: 0.437

Sequence: CGACATGTCCCGCTTCTTTCATTAATCCGTTAGGAACTGATTTGCTATATACATTTACCTTTTAAGAGGAGGAAT
- cleaved RNA product abundance: 0.415

Sequence: CGACATGTCCCGCTTCTTTCATTAATCCGTTAGGAACTGTCTTGCTATATACATTTACCTTTTAAGAGGAGGAAT
- cleaved RNA product abundance: 0.138

Sequence: CGACATGTCCCGCTTCTTTCATTAATCCGTTAGGAACTGTTTAGCTATATACATTTACCTTTTAAGAGGAGGAAT
- cleaved RNA product abundance: 0.327

Sequence: CGACATGTCCCGCTTCTTTCATTAATCCGTTAGGAACTGTTTTGCAATATACATTTACCTTTTAAGAGGAGGAAT
- cleaved RNA product abundance: 0.342

Sequence: CGACATGTCCCGCTTCTTTCATTAATCCGTTAGGAACTGTTTTGCGATATACATTTACCTTTTAAGAGGAGGAAT
- cleaved RNA product abundance: 0.312

Sequence: CGACATGTCCCGCTTCTTTCATTAATCCGTTAGGAACTGTTTTGCTATAAACATTTACCTTTTAAGAGGAGGAAT
- cleaved RNA product abundance: 0.289

Sequence: CGACATGTCCCGCTTCTTTCATTAATCCGTTAGGAACTGTTTTGCTATACACATTTACCTTTTAAGAGGAGGAAT
- cleaved RNA product abundance: 0.245

Sequence: CGACATGTCCCGCTTCTTTCATTAATCCGTTAGGAACTGTTTTGCTATATACATTTACCTTTTAAGAGGAGGAAT
- cleaved RNA product abundance: 0.331

Sequence: CGACATGTCCCGCTTCTTTCATTAATCCGTTAGGAACTGTTTTGCTATATACATTTACTTTTTAAGAGGAGGAAT
- cleaved RNA product abundance: 0.247

Sequence: CGACATGTCCCGCTTCTTTCATTAATCCGTTAGGAACTGTTTTGCTATATACATTTGCCTTTTAAGAGGAGGAAT
- cleaved RNA product abundance: 0.376

Sequence: CGACATGTCCCGCTTCTTTCATTAATCCGTTAGGAACTGTTTTGCTATATAGATTTACCTTTTAAGAGGAGGAAT
- cleaved RNA product abundance: 0.191

Sequence: CGACATGTCCCGCTTCTTTCATTAATCCGTTAGGAACTGTTTTGCTATATATATTTACCTTTTAAGAGGAGGAAT
- cleaved RNA product abundance: 0.367

Sequence: CGACATGTCCCGCTTCTTTCATTAATCCGTTAGGAACTGTTTTTCTATATACATTTACCTTTTAAGAGGAGGAAT
- cleaved RNA product abundance: 0.453

Sequence: CGACATGTCCCGCTTCTTTCATTAATCCGTTAGGAACTTTTTTGCTATATACATTTACCTTTTAAGAGGAGGAAT
- cleaved RNA product abundance: 0.409

Sequence: CGACATGTCCCGCTTCTTTCATTAATCCGTTAGTAAATGTTTTGCTATATACATTTACCTTTTAAGAGGAGGAAT
- cleaved RNA product abundance: 0.205

Sequence: CGACATGTCCCGCTTCTTTCATTAATCCGTTAGTAACTGTCTTGCTATATACATTTACCTTTTAAGAGGAGGAAT
- cleaved RNA product abundance: 0.231

Sequence: CGACATGTCCCGCTTCTTTCATTAATCCGTTAGTAACTGTTGTGCTATATACATTTACCTTTTAAGAGGAGGAAT
- cleaved RNA product abundance: 0.358

Sequence: CGACATGTCCCGCTTCTTTCATTAATCCGTTAGTAACTGTTTAGCTATATACATTTACCTTTTAAGAGGAGGAAT
- cleaved RNA product abundance: 0.463

Sequence: CGACATGTCCCGCTTCTTTCATTAATCCGTTAGTAACTGTTTTACTATATACATTTACCTTTTAAGAGGAGGAAT
- cleaved RNA product abundance: 1.04

Sequence: CGACATGTCCCGCTTCTTTCATTAATCCGTTAGTAACTGTTTTCCTATATACATTTACCTTTTAAGAGGAGGAAT
- cleaved RNA product abundance: 0.44

Sequence: CGACATGTCCCGCTTCTTTCATTAATCCGTTAGTAACTGTTTTGATATATACATTTACCTTTTAAGAGGAGGAAT
- cleaved RNA product abundance: 0.66

Sequence: CGACATGTCCCGCTTCTTTCATTAATCCGTTAGTAACTGTTTTGCAATATACATTTACCTTTTAAGAGGAGGAAT
- cleaved RNA product abundance: 0.316

Sequence: CGACATGTCCCGCTTCTTTCATTAATCCGTTAGTAACTGTTTTGCGATATACATTTACCTTTTAAGAGGAGGAAT
- cleaved RNA product abundance: 0.29

Sequence: CGACATGTCCCGCTTCTTTCATTAATCCGTTAGTAACTGTTTTGCTAAATACATTTACCTTTTAAGAGGAGGAAT
- cleaved RNA product abundance: 0.496

Sequence: CGACATGTCCCGCTTCTTTCATTAATCCGTTAGTAACTGTTTTGCTACATACATTTACCTTTTAAGAGGAGGAAT
- cleaved RNA product abundance: 0.318

Sequence: CGACATGTCCCGCTTCTTTCATTAATCCGTTAGTAACTGTTTTGCTATAAACATTTACCTTTTAAGAGGAGGAAT
- cleaved RNA product abundance: 0.389

Sequence: CGACATGTCCCGCTTCTTTCATTAATCCGTTAGTAACTGTTTTGCTATAGACATTTACCTTTTAAGAGGAGGAAT
- cleaved RNA product abundance: 0.536
